Laboratory results as given in patent US20050048477A1 (published 2005).
Each block holds one binder with its values, some of them ahead of it.

Assays:
[1] = target: T1, Gal80p (yeast, UniProt P04387 1-435); assay: membrane-tethered Gal4AD in yeast with a UASGAL-HIS3 reporter, growth without galactose
T1 sequence (looked up): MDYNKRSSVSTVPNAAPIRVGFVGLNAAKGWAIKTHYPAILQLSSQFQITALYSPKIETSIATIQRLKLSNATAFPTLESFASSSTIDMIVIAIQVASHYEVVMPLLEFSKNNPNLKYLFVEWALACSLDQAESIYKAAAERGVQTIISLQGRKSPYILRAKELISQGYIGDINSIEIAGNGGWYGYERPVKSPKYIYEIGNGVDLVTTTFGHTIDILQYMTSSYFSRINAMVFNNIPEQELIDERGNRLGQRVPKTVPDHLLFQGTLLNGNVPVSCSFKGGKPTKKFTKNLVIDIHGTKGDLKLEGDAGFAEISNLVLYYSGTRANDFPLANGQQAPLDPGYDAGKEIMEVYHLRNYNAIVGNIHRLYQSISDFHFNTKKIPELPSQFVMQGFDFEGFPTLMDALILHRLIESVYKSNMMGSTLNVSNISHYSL
Excerpt: FIG. 7. Membrane targeted transcriptional activation domain of Gal4p (Gal4AD; a.a. 758-881) activates HIS3 reporter gene expression. A yeast strain harboring a UASGAL-HIS3 reporter was transformed with Myr-Gal4AD. […] Transformed cells were spotted on synthetic medium plates lacking histidine, tryptophan and uracil and containing 3% glycerol/2% lactic acid as carbon source.

[2] = target: T1, Gal80p; assay: cell-based or functional assay
[3] = target: T2, myristoylated Gal3p (Myr-Gal3p) (yeast, UniProt P13045 1-520, limits assumed, N-myristoylation (acylation) at the N-terminal signal); assay: fluorescence microscopy of yeast Sc786 co-expressing Gal80-GFP and Myr-Gal3p, galactose induced
T2 construct: also called membrane-associated Gal3p
T2 sequence: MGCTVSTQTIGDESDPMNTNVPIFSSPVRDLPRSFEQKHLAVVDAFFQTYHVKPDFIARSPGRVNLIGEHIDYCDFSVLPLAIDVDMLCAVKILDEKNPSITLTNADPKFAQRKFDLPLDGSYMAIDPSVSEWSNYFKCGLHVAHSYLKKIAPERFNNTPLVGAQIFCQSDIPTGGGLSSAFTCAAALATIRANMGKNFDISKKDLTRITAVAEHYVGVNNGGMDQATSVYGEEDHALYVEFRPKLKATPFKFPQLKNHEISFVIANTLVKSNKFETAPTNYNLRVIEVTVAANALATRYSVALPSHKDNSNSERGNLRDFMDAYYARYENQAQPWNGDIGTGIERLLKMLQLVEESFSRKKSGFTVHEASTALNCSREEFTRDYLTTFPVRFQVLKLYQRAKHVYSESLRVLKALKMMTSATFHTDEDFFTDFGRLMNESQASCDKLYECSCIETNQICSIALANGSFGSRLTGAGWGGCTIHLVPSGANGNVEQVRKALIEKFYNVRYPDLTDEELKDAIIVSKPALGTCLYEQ

binding result [1]: binds
B1: Myr-Gal4AD (other, yeast)
chain: MGCTVSTQTIGDESDPPLTPSALFGGANFNQSGNIADSSLSFTFTNSSNGPNLITTQTNSQALSQPIASSNVHDNFMNNEITASKIDDGNNSKPLSPGWTDQTAYNAFGITTGMFNTTTMDDVYNYLFDDEDTPPNPKKE
modifications: N-myristoylation at the N-terminal signal
notes: range 758-881; also called membrane-localized Gal4AD

reduction in MEL1 gene expression level [2]: 2 fold
B2: wild type Gal3p (other, yeast, UniProt P13045 1-520, looked up)
chain: MNTNVPIFSSPVRDLPRSFEQKHLAVVDAFFQTYHVKPDFIARSPGRVNLIGEHIDYCDFSVLPLAIDVDMLCAVKILDEKNPSITLTNADPKFAQRKFDLPLDGSYMAIDPSVSEWSNYFKCGLHVAHSYLKKIAPERFNNTPLVGAQIFCQSDIPTGGGLSSAFTCAAALATIRANMGKNFDISKKDLTRITAVAEHYVGVNNGGMDQATSVYGEEDHALYVEFRPKLKATPFKFPQLKNHEISFVIANTLVKSNKFETAPTNYNLRVIEVTVAANALATRYSVALPSHKDNSNSERGNLRDFMDAYYARYENQAQPWNGDIGTGIERLLKMLQLVEESFSRKKSGFTVHEASTALNCSREEFTRDYLTTFPVRFQVLKLYQRAKHVYSESLRVLKALKMMTSATFHTDEDFFTDFGRLMNESQASCDKLYECSCIETNQICSIALANGSFGSRLTGAGWGGCTIHLVPSGANGNVEQVRKALIEKFYNVRYPDLTDEELKDAIIVSKPALGTCLYEQ

binding result [3]: binds
B3: Gal80-GFP (other, yeast, UniProt P04387 1-435, looked up)
chain: MDYNKRSSVSTVPNAAPIRVGFVGLNAAKGWAIKTHYPAILQLSSQFQITALYSPKIETSIATIQRLKLSNATAFPTLESFASSSTIDMIVIAIQVASHYEVVMPLLEFSKNNPNLKYLFVEWALACSLDQAESIYKAAAERGVQTIISLQGRKSPYILRAKELISQGYIGDINSIEIAGNGGWYGYERPVKSPKYIYEIGNGVDLVTTTFGHTIDILQYMTSSYFSRINAMVFNNIPEQELIDERGNRLGQRVPKTVPDHLLFQGTLLNGNVPVSCSFKGGKPTKKFTKNLVIDIHGTKGDLKLEGDAGFAEISNLVLYYSGTRANDFPLANGQQAPLDPGYDAGKEIMEVYHLRNYNAIVGNIHRLYQSISDFHFNTKKIPELPSQFVMQGFDFEGFPTLMDALILHRLIESVYKSNMMGSTLNVSNISHYSL
notes: Order of parts follows the name Gal80-GFP; also called Gal80p fused to green fluorescent protein; not shown: green fluorescent protein (GFP amplified from pYGFP1)
